This is an account of results in patent publication US20210079067A1 (US Dept. of Health and Human Services, published 2021).

By EC50 (read off the curve) is commonly meant the midpoint of the concentration-response curve. Low readings indicate greater potency, high ones weaker potency. In general, koff refers to a measure of how fast the partners let go of each other. One may read the kon as the second-order rate constant of association. Higher therefore signals faster complex formation.

Assay [1] has as its target T1, mucin-domain-deleted Zaire ebolavirus GP (Zaire ebolavirus, UniProt Q05320 33-650).
The target in assay [2] is T1, mucin-domain-deleted Zaire ebolavirus GP. Kind of assay: biolayer interferometry, mAb, pH 7.4, 1:2 bivalent model. (Biolayer interferometry detects binding as a change in optical thickness at a sensor tip.)
The target is the same in assay [3]. Briefly: biolayer interferometry, mAb, pH 7.4, 1:2 bivalent model (apparent).
Assay [4] has the same target. Briefly: biolayer interferometry, Fab, pH 7.4, 1:1 model; Fab, BLI, pH 7.4.
The target is the same in assay [5]. Kind of assay: pH 7.4.
Assay [6] shares this target. Briefly: biolayer interferometry, Fab, pH 5.3, 1:1 model; Fab, BLI, pH 5.3.
Assay [7] shares this target. Briefly: pH 5.3.

B1: mAb100 (antibody, V domains shown)
VH: QVQLQESGPGLVKPSDTLSLTCTVSGGSLSSFYWSWIRQPPGKGLEWIGYIYYSGSPNYSPSLESRVTMSVDTTRNQISLKLDSVTAADTAVYYCVRASRSYYWGSYRPTAFDSWGQGTLVTVSS
VL: SYELTQPLSVSVSPGQTAIFTCSGDNLGDKYVCWFQQRPGQSPMLLIYQDNKRPSGIPERFSGSNSGNTATLTISGTQSTDEADYYCQTWDSTVVFGGGTKLTVL
B1: the “EC50 (read off the curve)” value in assay [1] was about 0.01 µg/mL. Besides, in assay [2], the koff stood at 8.91e-06 s⁻¹ and the kon was found to be 143000 M⁻¹ s⁻¹. For the same molecule, in assay [3], the Kd was found to be 0.0628 nM.

B2: S1-4-A09 Fab (Fab, V domains shown)
VH: QVQLQESGPGLVKPSETLSLTCVVSGGILSSFYWNWIRQPPGKGLEWIGNIYYSGSPNYNASFQSRVAISVDTSKNQISLNLKSVTAADTAMYYCVRASRAYLWGSYRPTALDLWGQGSLVTVSS
VL: SYELTQPPSVSVSPGQTATITCSGDKLGDKYTSWFQQRPGQSPLLVIYQDNKRPSGLPARFSGSNSGNTATLTISGTQAMDEADYLCQVWDSGAVFGGGTKLTVL
Regarding B2, the Kd turned out to be 1.04 nM in assay [4] and 2.1 nM in assay [6]. For the same molecule, the koff in assay [5] amounted to 0.000136 s⁻¹; in assay [7] it was 0.000179 s⁻¹. For the same molecule, the kon in assay [5] came to 131000 M⁻¹ s⁻¹; in assay [7], 85200 M⁻¹ s⁻¹.
